Values quoted from earlier work as cited in patent US11407822B2, “Treatment of fibrodysplasia ossificans progressiva” (REGENERON PHARMACEUTICALS, INC., priority 2014, dated 2022).

Legend:
[1] = tested on: Activin A mediated signaling through ACVR2A and/or ACVR2B; conditions: as described for the antibody in US2015/0037339 or U.S. Pat. No. 8,309,082
[2] = target: T1, Activin A binding to ACVR2A or ACVR2B (Homo sapiens, UniProt P08476); conditions: as described for the antibody in US2015/0037339 or U.S. Pat. No. 8,309,082
T1 sequence (P08476 311-426): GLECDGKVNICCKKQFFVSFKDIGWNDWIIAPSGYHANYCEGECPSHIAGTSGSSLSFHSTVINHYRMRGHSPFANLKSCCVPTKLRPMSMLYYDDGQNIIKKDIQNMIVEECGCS

B1: H4H10430P: Antibody against Activin A designated H4H10430P in US2015037339; heavy and light chain variable regions present SEQ ID NOs:9 and 13 (antibody, V domains shown)
VH: EVQLVESGGGLVQPGRSLRLSCKASGFAFDDFAMHWVRQAPGKGLEWVSGIVWNSGDIGYADSVKGRFTISRDNAKNSLYLQLNSLRTEDTALYFCVKDMVRGLMGFNYYGMDVWGQGTTVTVSS
VL: EIVLTQSPATLSLSPGERATLSCRASQTISTYLVWYRQRPGQAPSLLIYDASNRATDIPARFSGSGSGTDFTLTISSLEPEDFAVYYCQQRSNWPITFGQGTRLEIK
Question: With B1 as the molecule, how does the “inhibition of Activin A signal transduction through ACVR2A and/or ACVR2B” value [1] read?
Answer: inhibits signal transduction through one or both of these receptors

Question: And the “inhibition of Activin A binding to ACVR2A and/or ACVR2B” value [2]?
Answer: inhibits binding of Activin A to ACVRV2A and/or ACVR2B
